Data: patent US20070212341A1, “Method for Preparing Active Kinases Containing Ph Domains” (priority 2004, published 2007)

Tested on: histone 2B
Assay: Kinase activity measurement (histone 2B phosphorylation, [33P]ATP flashplate)
Format: biochemical
Description: Another possibility of detecting the enzymic activity of Akt is that of incubating 100 ng of Akt, at 30° C. for 80 min, with 100 ng of histone 2B in a buffer composed of 50 mM Hepes (pH 7.5), 3 mM MgCl2 and 3 mM MnCl2, 3 μM sodium vanadate, 1 mM DTT, 1% DMSO, 100 nM ATP and 0.16 nM [^33P]-ATP. After stopping the reaction with phosphoric acid and washing with water, the incorporated cpm [counts per minute] are then determined, in a flashplate (NEN) in a Wallac Trilux measuring instrument, as a measure of the phosphorylation of the histone 2B. In this measuring instrument, the quantity of light which was generated from the radioactive decay by the scintillation gel present in the wells is measured quantitatively. It is a direct measure of the degree of phosphorylation of the Akt substrate employed.
In order to measure the kinase activity of truncated Akt1 (Akt1ΔPH) as well as of native Akt1, in each case 100 ng of Akt were incubated, at 30° C. for 80 min, with 100 ng of histone 2B in a buffer comprising 50 mM Hepes, pH 7.5, 3 mM MgCl2 and 3 mM MnCl2, 3 μM sodium vanadate, 1 mM DTT, 1% DMSO, 100 nM ATP and 0.16 nM [^33P]ATP. After the reaction had been stopped with phosphoric acid and the wells had been washed with water, the incorporated […], in a Wallac Trilux measuring instrument, as a measure of the histone 2B phosphorylation. In this measuring instrument, the quantity of light which was generated from the radioactive decay by the scintillation gel which was present in the wells was measured quantitatively. It is a direct measure of the degree of the phosphorylation of the Akt substrate employed.
Commercially obtainable wild-type Akt1 protein (Upstate Biochemicals, Charlottsville, Va., USA), which was likewise expressed in SF9 cells using the baculovirus system and then purified, was also used (results of the activity measurement in FIG. 1a, left-hand column).
The activity of an Akt derivative, which was expressed using the present method and obtained as an active kinase derivative, was compared with the activity of a commercially obtainable Akt1 enzyme (Upstate, Charlottsville, Va., USA). The activity of the commercially obtainable enzyme was obtained by expressing the enzyme, which contained the PH domain, in the baculovirus system and then purifying it. The enzyme was subsequently incubated with PDK1 in the presence of phosphatidylinositol […] lipid vesicles in order to phosphorylate Akt1 at threonine 308. After that, the activated Akt enzyme was separated chromatographically in order to separate it off from the activating PDK1 kinase. The enzyme activities of the two kinases were measured as described in Ex. 4.

[1] = FIG. 1a, 100 ng Akt, 100 ng histone 2B, 30° C., 80 min, expressed in SF9 cells

B1: PDK1-activated Akt1ΔPH: truncated Akt1 protein (amino acids 107-481, GST tag) without PH domain, activated by coexpression with truncated PDK1 in SF9 cells (protein)
chain: ADGLKKQEEEEMDFRSGSPSDNSGAEEMEVSLAKPKHRVTMNEFEYLKLLGKGTFGKVILVKEKATGRYYAMKILKKEVIVAKDEVAHTLTENRVLQNSRHPFLTALKYSFQTHDRLCFVMEYANGGELFFHLSRERVFSEDRARFYGAEIVSALDYLHSEKNVVYRDLKLENLMLDKDGHIKITDFGLCKEGIKDGATMKTFCGTPEYLAPEVLEDNDYGRAVDWWGLGVVMYEMMCGRLPFYNQDHEKLFELILMEEIRFPRTLGPEAKSLLSGLLKKDPKQRLGGGSEDAKEIMQHRFFAGIVWQHVYEKKLSPPFKPQVTSETDTRYFDEEFTAQMITITPPDQDDSMECVDSERRPHFPQFSYSASGTA
modifications: phosphorylated at threonine 308 and serine 473, as the filing says of the active form
- kinase activity compared with commercially obtainable native Akt1 activated by subsequent phosphorylation by PDK1 in the presence of lipid vesicles (Ex. 5, measured as described in Ex. 4): at least the same activity
- kinase activity (histone 2B phosphorylation) compared with Akt1ΔPH not activated by coinfection with PDK1-encoding baculoviruses [1]: markedly higher activity
- kinase activity (histone 2B phosphorylation) compared with Akt kinase derivative containing the PH domain with threonine 308 and serine 473 replaced with aspartic acid [1]: markedly higher activity
- kinase activity (histone 2B phosphorylation) compared with commercially obtainable wild-type Akt1 not activated by coinfection with PDK1-encoding baculoviruses (FIG. 1b, Ex. 4b, measured as in Ex. 4a): markedly higher activity
